In patent publication US20250057968A1, “ANTI-DLL3 ANTIBODY AND PHARMACEUTICAL USE THEREOF, AND ANTIBODY-DRUG CONJUGATE CONTAINING ANTI-DLL3 ANTIBODY” (Jiangsu Hengrui Pharmaceuticals Co., Ltd., priority 2021, published 2025):

What was measured:
[1] = biological target: T1, RatDLL3/CHO-s (Rattus norvegicus, UniProt O88671); experiment: Cell-level FACS binding assay, RatDLL3/CHO-s cells
T1 construct: Rat DLL3 full-length protein; expressed in transfected cells; host or cells: CHO-s (Invitrogen, R80007), lentiviral transduction
T1 sequence (O88671 33-589): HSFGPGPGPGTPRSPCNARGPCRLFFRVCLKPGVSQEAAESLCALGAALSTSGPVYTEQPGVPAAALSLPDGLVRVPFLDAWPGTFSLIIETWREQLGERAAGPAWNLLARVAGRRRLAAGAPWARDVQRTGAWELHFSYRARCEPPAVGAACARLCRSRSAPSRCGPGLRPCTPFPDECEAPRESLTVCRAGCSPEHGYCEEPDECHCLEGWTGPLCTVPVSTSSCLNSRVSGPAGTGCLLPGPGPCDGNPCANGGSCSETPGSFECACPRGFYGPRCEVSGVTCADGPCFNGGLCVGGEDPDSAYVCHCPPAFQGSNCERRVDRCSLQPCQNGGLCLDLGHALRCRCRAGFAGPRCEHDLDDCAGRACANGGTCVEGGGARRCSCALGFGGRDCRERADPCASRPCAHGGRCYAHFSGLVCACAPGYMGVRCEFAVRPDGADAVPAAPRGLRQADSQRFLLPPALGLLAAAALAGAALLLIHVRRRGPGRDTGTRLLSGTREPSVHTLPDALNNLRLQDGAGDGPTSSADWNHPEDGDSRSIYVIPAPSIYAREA
Experimental: (§1) Cells of the DLL3-expressing small cell lung cancer cell lines H1184 (ATCC, Cat. No. CRL-5858), DLL3/H82, cynoDLL3/CHO-s, and RatDLL3/CHO-s were suspended at 1×10^6/mL in FACS buffer (1% BSA+pH 7.4 PBS), and the cell suspensions were added to a 96-well round-bottom plate (Corning, 3795) at 100 μL/well. The plate was centrifuged at 300 g for 5 min, and the supernatant was removed. Different concentrations of test antibodies were added at 100 μL/well. The plate was incubated in the dark in a refrigerator at 4° C. for 1 h. After 3 washes by centrifugation at 300 g, working concentrations of APC anti-human IgG Fc (BioLegend, 410712) or PE F(ab′)2-goat anti-human IgG (invitrogen, H10104) were added. The plate was incubated in the dark in a refrigerator at 4° C. for 40 min. After 3 washes by centrifugation at 300 g, the geometric mean fluorescence intensity was measured on an Invitrogen flow cytometer, and the EC50 values of the antibodies in binding to DLL3-expressing cells were calculated. The results are shown in Table 11-1, Table 11-2, Table 11-3, and FIG. 1A to FIG. 1C.

[2] = biological target: T2, Human DLL3 full-length protein on cells (human, UniProt Q9NYJ7 27-618); experiment: FACS on H1184 cells
T2 construct: H1184 and DMS53 express DLL3 themselves; The cell line is named under assay; also called H1184 cells; DLL3/H82
T2 sequence: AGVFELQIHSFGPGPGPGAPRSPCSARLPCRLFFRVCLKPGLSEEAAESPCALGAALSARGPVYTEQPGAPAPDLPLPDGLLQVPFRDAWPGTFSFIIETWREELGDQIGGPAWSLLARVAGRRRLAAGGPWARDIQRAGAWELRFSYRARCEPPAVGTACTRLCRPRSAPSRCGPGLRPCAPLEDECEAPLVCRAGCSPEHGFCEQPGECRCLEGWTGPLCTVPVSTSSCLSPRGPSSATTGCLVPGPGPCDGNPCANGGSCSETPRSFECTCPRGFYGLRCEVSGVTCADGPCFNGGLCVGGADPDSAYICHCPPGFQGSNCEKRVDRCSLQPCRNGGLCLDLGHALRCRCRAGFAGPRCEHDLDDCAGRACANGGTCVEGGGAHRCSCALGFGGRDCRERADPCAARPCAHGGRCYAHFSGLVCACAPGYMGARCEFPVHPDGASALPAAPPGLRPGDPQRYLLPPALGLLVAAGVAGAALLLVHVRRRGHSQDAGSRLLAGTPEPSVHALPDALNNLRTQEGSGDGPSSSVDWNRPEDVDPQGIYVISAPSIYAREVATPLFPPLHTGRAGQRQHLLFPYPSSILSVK
Experimental: as §1, with “calculated.” for “calculated. The results are shown in Table 11-1, Table 11-2, Table 11-3, and FIG. 1A to FIG. 1C.”

[3] = biological target: T2, Human DLL3 full-length protein on cells; experiment: cell-based or functional assay
[4] = biological target: T2, Human DLL3 full-length protein on cells; experiment: cell-based or functional assay; remark: listed apart in the source
[5] = biological target: T3, hDLL3(ECD)-strep twin, biotinylated (human, UniProt Q9NYJ7 27-492, biotinylated (site not stated)); experiment: competition ELISA: BI-764532 coated on the plate (1 µg/mL), biotinylated DLL3-Strep (0.1 µg/mL) with soluble BI-764532 as competitor, streptavidin-peroxidase detection, OD450
T3 construct: also called Biotinylated DLL3 antigen; Biotinylated DLL3-Strep
Experimental: The plate was washed 3 times with 250 μL of PBST solution per well. The plate was blocked with 250 μL of 5% milk per well at 37° C. for 2 h. The plate was washed 3 times with 250 μL of PBST solution per well. […] The plate was washed 6 times with 250 μL of PBST solution per well. […] The plate was washed 6 times with 250 μL of PBST solution per well. TMB (KPL, 5120-0077) substrate solution was added at 100 μL/well, and color development was allowed at room temperature for 5-10 min.

[6] = biological target: T4, Rat DLL3 full-length protein on CHO-s cells (rat, UniProt O88671 33-589); experiment: FACS on RatDLL3/CHO-s cells
T4 construct: also called RatDLL3/CHO-s; ratDLL3/CHO-s
T4 sequence: T1 sequence (O88671 33-589)
Experimental: as §1, with “calculated.” for “calculated. The results are shown in Table 11-1, Table 11-2, Table 11-3, and FIG. 1A to FIG. 1C.”

[7] = biological target: T5, Cynomolgus monkey DLL3 full-length protein on CHO-s cells (cynomolgus monkey, UniProt Q9NYJ7 27-618 (human entry)); experiment: FACS on cynoDLL3/CHO-s cells
T5 construct: also called cynoDLL3/CHO-s
T5 chain: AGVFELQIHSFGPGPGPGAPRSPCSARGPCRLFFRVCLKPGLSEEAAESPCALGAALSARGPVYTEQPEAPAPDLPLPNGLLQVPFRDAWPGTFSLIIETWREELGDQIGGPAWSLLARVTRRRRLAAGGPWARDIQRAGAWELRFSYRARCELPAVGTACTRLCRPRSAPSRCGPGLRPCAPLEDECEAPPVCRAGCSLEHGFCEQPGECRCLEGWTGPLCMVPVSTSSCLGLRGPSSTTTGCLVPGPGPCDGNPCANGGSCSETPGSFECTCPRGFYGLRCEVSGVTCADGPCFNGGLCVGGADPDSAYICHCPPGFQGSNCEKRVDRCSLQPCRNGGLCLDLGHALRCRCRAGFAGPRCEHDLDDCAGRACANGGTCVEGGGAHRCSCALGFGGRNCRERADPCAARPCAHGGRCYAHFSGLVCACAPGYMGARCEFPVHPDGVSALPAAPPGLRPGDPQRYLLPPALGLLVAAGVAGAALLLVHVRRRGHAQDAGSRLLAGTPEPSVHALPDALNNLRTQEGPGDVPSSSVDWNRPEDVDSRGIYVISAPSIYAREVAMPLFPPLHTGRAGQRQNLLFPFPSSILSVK
Experimental: as §1, with “calculated.” for “calculated. The results are shown in Table 11-1, Table 11-2, Table 11-3, and FIG. 1A to FIG. 1C.”

Question: With “BI-764532: positive control molecule, constructed by reference to WO2019234220A1; heavy chain SEQ ID NO: 62, light chain SEQ ID NO: 63 [reference compound]” as the molecule, how does the “binding to cells expressing rat DLL3 (in words)” value [1] read?
Answer: No binding

B1: hAb6L4H6 (antibody, human IgG1, kappa, V domains shown)
VH: EVQLVQSGSELKKPGASVKVSCKASGYTFTDYYMNWVRQAPGQGLEWMGIINPYSGVTIYNHKFKGRFVLSVDKSSNTAYLQISSLKAEDTAVYYCARQDSLLDYAMDYWGQGTTVTVSS
VL: DIQMTQSPSSLSASVGDRVTITCHASQGISGNMGWLQQKPGKAPKGLIYHGANLEDGVPSRFSGSGSGADYTLTISSLQPEDFADYYCVQYAQFPYTFGGGTKVEIKR
Question: With B1 as the molecule, how does the EC50 [2] read?
Answer: 0.17 nM

Question: What about the Emax [2] of the same molecule?
Answer: 2000

B2: ADC-2 (antibody, human IgG1, kappa, V domains shown)
VH: EVQLVESGGGLVKPGGSLRLSCAASGFTFSDSGMHWIRQAPGKGLEWVSYISSGSSTIHYADTVKGRFTISRDNAKNSLYLQMNSLRAEDTAVYYCASPLYYYGRSYNAVAYWGQGTTVTVSS
VL: DIQMTQSPSSLSASVGDRVTITCHASQNINVWLSWYQQKPGKVPKLLIYKASDLHTGVPSRFSGSGSGTDFTLTISSLQPEDVATYYCQQGQSYPLTFGGGTKVEIKR
modifications: linker-drug L-9 conjugated after TCEP reduction; sites not stated; linker-drug L-9 (ecteinascidin derivative) conjugated after TCEP reduction; sites not stated; DAR n=3.72-4.88 for the whole antibody
Question: Which “IC50 (nM), killing of DMS53 (+) cells” value [3] does the source give for B2 here?
Answer: 13.1 nM

Question: What about the “IC50 (nM), killing of H1184 (+++) cells” value [3] of the same molecule?
Answer: 0.11 nM

B3: BI-764532 (antibody, human IgG1, kappa, V domains shown)
VH: QVQLVQSGAEVKKPGASVKVSCKASGYTFTSYYVHWVRQAPGQGLEWMVIINPGGGTTSYAQKFLGRVTMTRDTSTNTVYMELKSLRSEDTAVYYCARGEAVTGNYFYYGMDVWGQGTTVTVSS
VL: DIQMTQSPSAMSASVGDRVTITCRASQGISNYLVWFQQKPGKAPKRLIYAVSSLYSGVPSRFSGSGSGTEFTLTISSLQPEDFATYYCLQHDSYPYTFGQGTKLEIKR
notes: also called positive control molecule
Question: How did the “IC50 (nM), cell killing caused by endocytosis of antibodies (DT3C, DMS53/DLL3 cells)” value [4] turn out when B3 was run?
Answer: 3.27 nM

Question: What about the “Imax, cell killing caused by endocytosis of antibodies (DT3C, DMS53/DLL3 cells)” value [4] of the same molecule?
Answer: 86.5

Question: What about the EC50 [2] of the same molecule?
Answer: 3.94 nM

Question: What about the Emax [2] of the same molecule?
Answer: 1620

Question: What about the “IC50 (read off the curve)” value [5] of the same molecule?
Answer: ~0.06 µg/mL

Question: Does B3 bind [6]?
Answer: no binding

Question: What about the EC50 [7] of the same molecule?
Answer: 3.42 nM

Question: And the Emax [7]?
Answer: 963

B4: M6CHI (antibody, human IgG1, kappa, V domains shown)
VH: EVQLQQSGPVLVKPGASVKMSCKASGYTFTDYYMNWVKQSHGKSLEWIGIINPYSGVTIYNHKFKGKATLTVDKSSNTAYMELNSLTSEDSAVYYCARQDSLLDYAMDYWGQGTSVTVSS
VL: DILMTQSPSSMSVSLGDTVSITCHASQGISGNMGWLQQKPGKSFKGLIYHGANLEDGVPSRFSGSGSGADYSLTISSLESEDFADYYCVQYAQFPYTFGGGTKLEIKR
notes: murine variable regions on human IgG1 / kappa constant regions; also called chimeric antibody of mAb6
Question: What does the source list for B4?
Answer: EC50 [2]: 0.14 nM; Emax [2]: 3370
